Measured values taken from PMC2917185.

What was measured:
[1] = biological target: T1, LHCP (light-harvesting chlorophyll a/b binding protein), fluorescein-labeled, P07371; test: fluorescence polarisation; conditions: remark: other sources report otherwise
[2] = biological target: T1, LHCP (light-harvesting chlorophyll a/b …); test: fluorescence polarisation; conditions: remark: other sources report otherwise; remark: listed apart in the source

B1: cpSRP43 (mature), O22265 57-373 (natural protein)
chain: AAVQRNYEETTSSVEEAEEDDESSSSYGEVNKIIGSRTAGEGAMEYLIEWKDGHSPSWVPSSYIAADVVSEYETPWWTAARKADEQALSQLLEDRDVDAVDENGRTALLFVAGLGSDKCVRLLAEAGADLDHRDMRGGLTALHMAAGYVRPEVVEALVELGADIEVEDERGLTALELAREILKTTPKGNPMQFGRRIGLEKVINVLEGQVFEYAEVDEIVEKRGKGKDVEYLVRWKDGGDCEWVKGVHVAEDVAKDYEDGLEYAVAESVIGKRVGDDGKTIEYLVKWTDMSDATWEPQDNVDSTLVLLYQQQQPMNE
[1]
  Kd: 138 nM
[2]
  Kd: 296 nM
